How the values were obtained:
Assay type in all cases: cell-based
gene editing with dCas9 = experiment: Screen of 322 new SSAP proteins, gene editing activity with dCas9 (Table 5); set-up: dCas9 with SSAP activity: scale not given here
Outline: (§1)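 Sequence-mined SSAPs (n=322), synthesized; editing activity screened with Cas9 or dCas9.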

[1] = test system: gene editing with Cas9 and dCas9; experiment: Screen of 322 new SSAP proteins, activity across all experiments (Cas9 and dCas9, Table 5); set-up: scale not given here
Outline: as §1

gene editing with Cas9 = experiment: Screen of 322 new SSAP proteins, gene editing activity with Cas9 (Table 5); set-up: Cas9 with SSAP activity: scale not given here
Outline: as §1

B1: SSAP_149: SEQ ID NO: 318; unclassified Oscillibacter (protein, listed as Oscillibacter sp.)
chain: KEGLIQGTQSAQAAKKGPATMQDYIKKMQGEIAKALPSVLTPERFTRITLSALSTNPKLAQTTPKSFLGAMMTAAQLGMEPNTPLGQAYLIPFKNHGVLECQFQLGYKGLIDLAYRSGEVSTIQAQTVYENDEFEYELGLEPKLHHVPAKGERGEPVYFYAVFRTKDGGYGFEVMSVDDVRTHAKKYSKAYSNGPWQTNFEEMAKKTVLKKALKYAPLKTEFMRGLTSDETIKTEISEDMYSVPDETVIEAEGYEVDGDTGEVIERPADGQ
- dCas9 with SSAP activity (gene editing with dCas9): −6.999
- dCas9 with SSAP activity (normalized) (gene editing with dCas9): −1.192
- Activity across all experiments [1]: −4.416
- Cas9 with SSAP activity (gene editing with Cas9): −1.833
- Cas9 with SSAP activity (normalized) (gene editing with Cas9): −2.092

B2: SSAP_53: SEQ ID NO: 222 (protein)
chain: STALTTLTSQLSQRFKLDGGEELLTTLKQTAFKGQVTDAQMTALLIVANQFGLNPWTKEIYAFPDKNGGIVPVVGVDGWARIINEHPQFDGMDFEMDGEQSCTCVIYRKDRTRPIRITEYMAECKKTGGGPWQSHPRRMLRHKAMIQCARMAFGFGGISDEDDAERIREKDITPQAEVVPKALEPYPADKFEENFEQWKSLIESGRRSADDVIAKIKSRNTMTDEQETRLRACGGEEGKTYENA
- dCas9 with SSAP activity (gene editing with dCas9): 0.088
- dCas9 with SSAP activity (normalized) (gene editing with dCas9): 0.036
- Activity across all experiments [1]: −0.778
- Cas9 with SSAP activity (gene editing with Cas9): −1.644
- Cas9 with SSAP activity (normalized) (gene editing with Cas9): −1.327

B3: SSAP_322: SEQ ID NO: 491; Candidatus Dependentiae bacterium (protein)
chain: CHVLNFQTDYKGEIKLAHKYSVRKIIDIYAKVVRDGDVLEIRVENGSQIVNFNPKVFNDGKIIGAFAVVKFVDGSLLYETMSKSEIDHTRVTFSKMPNGMAWKDSEGEMCRKTVLRRICKLIDLHFDSVEQEQAWNDGSDADLTKNEPVKPEIQNPFPTKAVEAVIVTEEEKLRKQLKDKDPTLQDWQIDALVREHKEANQ
modifications: Candidatus Dependentiae bacterium
- dCas9 with SSAP activity (gene editing with dCas9): 0.082
- dCas9 with SSAP activity (normalized) (gene editing with dCas9): 0.048
- Activity across all experiments [1]: 0.184
- Cas9 with SSAP activity (gene editing with Cas9): 0.287
- Cas9 with SSAP activity (normalized) (gene editing with Cas9): 0.247

B4: SSAP_127: SEQ ID NO: 296; Solibacillus sp. R5-41 (protein, listed as Solibacillus sp.)
chain: ATSNELKKQAQGQVTAKPTTPEGSLNALLKKMGPEIQRALPKHMDADRIARIALTAVRTTPKLLECDQLSFVAALMQSAQLGVEPNTGLGQAYLIPYGGKVQFQLGYKGLIDLAVRSGQYKAIYAHEVYADDEFSFAYGLHKDLVHVPSANPSGDPIGYYAVYHLKNGGYDFVYWTRERIDIHSKAFSQAVQKGWTSPWKTNYDAMAKKTVLKEVLKYAPKSIEMQKVVEADETIKNEVAPDMSNVIDVTDYSILEDPQDVTDAQ
- dCas9 with SSAP activity (gene editing with dCas9): −6.524
- dCas9 with SSAP activity (normalized) (gene editing with dCas9): −1.210
- Activity across all experiments [1]: −3.048
- Cas9 with SSAP activity (gene editing with Cas9): 0.427
- Cas9 with SSAP activity (normalized) (gene editing with Cas9): 0.447

B5: SSAP_88: SEQ ID NO: 257; Raoultella planticola (protein, listed as Raoultella planticola)
chain: TKQPPIAKADLQKTQGTRVSSPKGNNDVISFINQPSMKEQLAAALPRHMTAERMIRIATTEIRKVPALASCDTMSFVSAIVQCSQLGLEPGGALGHAYLLPFGNKNEKSGKKNVQLIIGYRGMIDLARRSGQIASLSARVVREGDEFSYEFGLEEKLTHRPGENEDAPVTHVYAVARLKDGGTQFEVLTSKQIELVRSQSKAANSGPWVTHWEEMAKKTAIRRLFKYLPVSIEIQRAVSIDEKEALTIDPADTSVLTGEYSVINSESEE
- dCas9 with SSAP activity (gene editing with dCas9): −6.933
- dCas9 with SSAP activity (normalized) (gene editing with dCas9): −1.193
- Activity across all experiments [1]: −4.539
- Cas9 with SSAP activity (gene editing with Cas9): −2.144
- Cas9 with SSAP activity (normalized) (gene editing with Cas9): −1.524

B6: SSAP_136: SEQ ID NO: 305; Corynebacterium striatum (protein, listed as Corynebacterium striatum)
chain: GTNLEQRMAANNAPAKQNRPVTLADQIRSMESQFQLAMPKGMEAQQLVRDALTCLRQTPKLAECTPQSVLGGLMTCSQLGLRPGVLGHAYLLPFWDRKQGGMVAQLVVGYRGLVELAHRSGQIQSLIARTVYENDHFDVDYGLDDKLVHKPCMNGPKGNPIAYYAVAKFTTGGHSFIVMSKDEMLAYRDEFAKAKNKQGEVFGPWADNFDAMAHKTCVRQLAKWMPSSTDLDRGIAADETVRVDLSESALDYPQHVDGEVVDSKPAEDEAA
- dCas9 with SSAP activity (gene editing with dCas9): −6.395
- dCas9 with SSAP activity (normalized) (gene editing with dCas9): −0.952
- Activity across all experiments [1]: −3.495
- Cas9 with SSAP activity (gene editing with Cas9): −0.594
- Cas9 with SSAP activity (normalized) (gene editing with Cas9): −0.262

B7: SSAP_139: SEQ ID NO: 308; Butyrivibrio sp. FCS006 (protein, listed as Butyrivibrio sp.)
chain: PYLFGGQMKEQEIKNQLAAKAVETTNPKLSKNMNIADLIKAIEPEIKKALPTVITPERFTRIALSALNTTPKLAECSQMSFLAALMNAAQLGLEVNSPLGQAYLIPYNNKGKLECQFQIGYKGMLGLAYRNPEIQTIQAQVVYENDDFKYELGLDSKLYHKPSLSDRGKVRCYYALYKLRNGGYGFEVMSRRDVEEYAKRYSKVTDSLYSPWANNFDSMAKKTVIKQLLKYAPLRTDLEKAMSMDESIKTRVSVDMSEVENEETFDAEVEV
- dCas9 with SSAP activity (gene editing with dCas9): −6.481
- Activity across all experiments [1]: −6.481
- Cas9 with SSAP activity (gene editing with Cas9): −6.481

B8: SSAP_179: SEQ ID NO: 348; Acetoanaerobium noterae (protein, listed as Acetoanaerobium noterae)
chain: SNLKNELAKKANNSVTDGNKEPQTIKDWIKVMEPAIKKALPSVITPERFTRMALTAISVNPKLAECTPKSFMGSLMNAAQLGLEPNTPLGQAYLIPYKNKGNMEVQFQIGYKGLIELAYRSGEFANIYAKEVFENDEFEYEFGLEPVLKHKPASGNRGEVIAYYAVFKLTNGGFGFEVMSKEDITNHAKTYSQAYSSSYSPWSKNFDEMAKKTVLKKVLKYAPIKVEFVKQIVQDSTIKTEINSDMTEVESQNVFEAEETDYEVIDQEETK
- dCas9 with SSAP activity (gene editing with dCas9): −6.840
- dCas9 with SSAP activity (normalized) (gene editing with dCas9): −1.230
- Activity across all experiments [1]: −5.563
- Cas9 with SSAP activity (gene editing with Cas9): −4.285
- Cas9 with SSAP activity (normalized) (gene editing with Cas9): −0.748

B9: SSAP_195: SEQ ID NO: 364; Isoptericola dokdonensis (protein, listed as Isoptericola dokdonensis)
chain: TQDLATAIADQQPAQRRTAFDLVESMRGELHKALPEHASIDNFLRLALTELKMNPQLGNCSGESLLGALMTAARVGLEVGGPLGQFYLTPRRLKRDGWAVVPIVGYRGLITLARRAGVGQVNAVVVHEGDTFREGASSERGFFFDWEPAVERGKPVGALAAARLAGGDVQHRYLSLAEVHERRDRGGFKDGSNSPWATDYDAMVRKTALRALVPLLPQSTALSFAVQADEQVQRYDAGDIDIPALDETDTEDTK
- dCas9 with SSAP activity (gene editing with dCas9): −6.406
- dCas9 with SSAP activity (normalized) (gene editing with dCas9): −0.956
- Activity across all experiments [1]: −4.084
- Cas9 with SSAP activity (gene editing with Cas9): −1.761
- Cas9 with SSAP activity (normalized) (gene editing with Cas9): −1.896

B10: SSAP_200: SEQ ID NO: 369; Streptomyces (multispecies) (protein, listed as Streptomyces sp.)
chain: SQISNALATRDQGPAAQIEQYRDEYAALVPSHVNADQWVRLAVGAVRGDEKLMEAAQNDIGLFLREMKTAARLGLEPGTEQFYLTPRKSKPHGGRKVIKGIVGYQGIVELIYRAGAASTVIVEAVRENDTFRYVPGRDDRPVHEIDWFANDRGPLVGVYAYAVMKDGAVSKVVVLNRSRVMEFKAKSDSKHSEYSPWNTNEEAMWLKSAVRQLAKWVPTSAEYRRDQLLAHTETADSVVASVSTAPLPPQPSALDDADPDDDGPIDAELVD
- dCas9 with SSAP activity (gene editing with dCas9): −6.514
- dCas9 with SSAP activity (normalized) (gene editing with dCas9): −1.107
- Activity across all experiments [1]: −4.491
- Cas9 with SSAP activity (gene editing with Cas9): −2.468
- Cas9 with SSAP activity (normalized) (gene editing with Cas9): −0.973

B11: SSAP_148: SEQ ID NO: 317; Corynebacterium liangguodongii (protein, listed as Corynebacterium liangguodongii)
chain: KDLETRMAANQQPAQQRPTTLADQIRGMEQQFALAMPKGAEASQLVRDALTALRQAPKLAQCTPQSVLGSLMTCAQLGLRPGVLGHAYLIPFYDRRAGGLVAQLVIGYQGLVELAHRSGQIKSLIARTVYENDVFDVDYGLEDKLVHKPYMGGDKGQPIAYYAVAKFTTGGHAFYVMSHPEMLDYRARFAKSAERGPWVDNFEAMALKTCVRQLSKWMPKSTELATAIAADESVRVDLTPDAINYPEHVDGEVVDAQGTTEDTAGEGEQSA
- dCas9 with SSAP activity (gene editing with dCas9): −6.656
- dCas9 with SSAP activity (normalized) (gene editing with dCas9): −1.610
- Activity across all experiments [1]: −5.193
- Cas9 with SSAP activity (gene editing with Cas9): −3.731
- Cas9 with SSAP activity (normalized) (gene editing with Cas9): −0.574

B12: SSAP_116: SEQ ID NO: 285; Lachnoclostridium sp. An14 (protein, listed as Lachnoclostridium sp.)
chain: TDVKQELERKVGKQDSTAVRLTKNMSIPDMIKALEPEIRRALPAVLTPERFLRMALSAVNNTPKLAECTPMSFIAAMMNAAQLGLEPNTPLGQAYLIPYKNKNQLECQFQIGYKGIIDLAYRTGQMQMIQAHAVHEFDDFEYEYGLNPKLIHRPGDGNRGEITYFYGLFKLVNGGFGFEVMNREAMEAFAQQYSQSYGSQYSPWVKNFEDMAKKTVIKKALKYGPVKAEFQKAISMDETIKTEIAVDMTEVQNEESE
- dCas9 with SSAP activity (gene editing with dCas9): −6.481
- Activity across all experiments [1]: −3.394
- Cas9 with SSAP activity (gene editing with Cas9): −0.307
- Cas9 with SSAP activity (normalized) (gene editing with Cas9): −0.056

B13: SSAP_212: SEQ ID NO: 381; Streptomyces sp. NRRL S-1824 (protein, listed as Streptomyces sp.)
chain: SEISNAIATRDQGPAAQIEAYRDEYAALVPSHINVDQWVRLAAGAIRGNEDLMEAARNDIGVFLRELKTAARLGLEPGTEQFYLTARKSKAHGYALIIKGIVGYQGIVELIYRAGAVSSVIVEAVRANDTFSYVPGRDDRPIHEIDWFGGDRGPLVGVYAYAVMKDGAVSKVVVMNHKRVMEIKARSDSKNSQYSPWNTDEESMWLKSAIRQLAKWVPTSAEYKSEQLRAHAEAIGELASVASAPLPPQPSVLDDVDPDDEGPIEGELVD
- dCas9 with SSAP activity (gene editing with dCas9): −6.577
- dCas9 with SSAP activity (normalized) (gene editing with dCas9): −1.182
- Activity across all experiments [1]: −3.064
- Cas9 with SSAP activity (gene editing with Cas9): 0.448
- Cas9 with SSAP activity (normalized) (gene editing with Cas9): 0.210

Source: US20250034594A1, “RNA-GUIDED GENOME RECOMBINEERING AT KILOBASE SCALE” (THE BOARD OF TRUSTEES OF THE LELAND STANFORD JUNIOR …, priority 2021, published 2025)
